Assay results as given in patent US20230312713A1.

What was measured:
[1] = molecular target: mouse CD5 on murine T cells (mouse) (UniProt P13379); assay: cell-based or functional assay
[2] = molecular target: human CD5 on human ACH2 immortalized T cells (human) (UniProt P06127); assay: cell-based or functional assay
Chain of UniProt P06127 (P06127 25-495 limits assumed): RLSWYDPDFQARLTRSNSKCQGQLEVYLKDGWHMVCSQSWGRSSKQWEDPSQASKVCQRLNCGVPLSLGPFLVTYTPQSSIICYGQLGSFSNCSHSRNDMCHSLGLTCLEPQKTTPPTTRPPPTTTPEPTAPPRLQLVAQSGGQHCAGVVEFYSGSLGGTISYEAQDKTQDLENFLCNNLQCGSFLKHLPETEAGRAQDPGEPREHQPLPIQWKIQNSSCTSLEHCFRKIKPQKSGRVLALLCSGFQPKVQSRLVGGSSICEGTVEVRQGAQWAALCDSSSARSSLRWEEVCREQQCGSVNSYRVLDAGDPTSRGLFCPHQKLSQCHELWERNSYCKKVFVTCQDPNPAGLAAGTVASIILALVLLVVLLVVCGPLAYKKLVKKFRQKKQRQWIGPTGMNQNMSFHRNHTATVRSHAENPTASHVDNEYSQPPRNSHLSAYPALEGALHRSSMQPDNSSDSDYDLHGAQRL

Chain of UniProt P13379 (P13379 24-494 limits assumed): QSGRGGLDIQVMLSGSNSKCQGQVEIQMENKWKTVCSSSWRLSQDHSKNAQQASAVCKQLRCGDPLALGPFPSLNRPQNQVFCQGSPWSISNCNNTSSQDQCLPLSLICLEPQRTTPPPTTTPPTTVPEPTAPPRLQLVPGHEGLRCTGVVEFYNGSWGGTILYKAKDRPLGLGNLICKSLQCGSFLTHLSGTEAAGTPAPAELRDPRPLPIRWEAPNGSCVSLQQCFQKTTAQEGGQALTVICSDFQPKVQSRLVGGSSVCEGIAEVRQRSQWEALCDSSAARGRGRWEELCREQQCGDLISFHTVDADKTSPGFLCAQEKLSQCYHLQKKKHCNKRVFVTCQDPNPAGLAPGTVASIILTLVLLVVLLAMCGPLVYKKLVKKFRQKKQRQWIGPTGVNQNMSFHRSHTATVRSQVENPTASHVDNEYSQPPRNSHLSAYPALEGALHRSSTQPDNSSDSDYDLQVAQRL

## control isotype matched IgG conjugated to LNP-mRNA (antibody)
[1]
  percent of murine T cells receiving mRNA in vitro from IgG/LNP (flow cytometry): 7%

## mouse anti-human CD5, clone UCHT2 (BioLegend), conjugated to LNP-mRNA (antibody)
[2]
  percent gene transfer (GFP) in human ACH2 T cells with CD5/LNP-GFP in vitro: 89 to 93%

## purified rat anti-mouse CD5, clone 53-7.3 (BioLegend), conjugated to LNP-mRNA (antibody)
[1]
  ZsGreen expression in CD4+ splenocytes of Ai6 mice 24 h after 30 ug CD5/LNP-Cre: 81.1%
  ZsGreen expression in CD8+ splenocytes of Ai6 mice 24 h after 30 ug CD5/LNP-Cre: 75.6%
  percent FAPCAR T cells in spleen 48 h after CD5/LNP-FAPCAR injection: 17.5 to 24.7%
  percent of murine T cells expressing FAPCAR after 48 h in vitro with CD5/LNP-FAPCAR (flow cytometry): 83%
  percent of murine T cells expressing GFP after 48 h in vitro with CD5/LNP-GFP (flow cytometry): 78%
